Results as given in publication PMC4629677.

Target: microtubule (sea-urchin sperm axonemes) (sea urchin (sperm axonemes))
Test: single-molecule fluorescence imaging

Substance: 2T-K490CLM, two-tail stalk-truncated cysteine-light mutant kinesin (motility and ATPase experiments) (from UniProt P33176 1-490; P33176 904-963)
- duration time on MT (short stop mode): 1.47 s

Substance: tail-GFP (kinesin tail 904-963 fused to EGFP) (from UniProt P33176 904-963) (domain or fragment)
- duration time on MT (diffusive mode): 1.73 s
